Test results as given in PMC3755756 (Developmental cell, 2013).
Each block holds one binder with its values, some of them ahead of it.

Biological target: ubiquitin (15N-Ub) (UniProt P0CG48 1-76)
Assay: NMR titration

Kd: ~50 µM
B1: V domain of human Alix (domain or fragment)
chain: FEKMVPVSVQQSLAAYNQRKADLVNRSIAQMREATTLANGVLASLNLPAAIEDVSGDTVPQSILTKSRSVIEQGGIQTVDQLIKELPELLQRNREILDESLRLLDEEEATDNDLRAKFKERWQRTPSNELYKPLRAEGTNFRTVLDKAVQADGQVKECYQSHRDTIVLLCKPEPELNAAIPSANPAKTMQGSEVVNVLKSLLSNLDEVKKEREGLENDLKSVNFDMTSKFLTALAQDGVINEEALSVTELDRVYGGLTTKVQESLKKQEGLLKNIQVSHQEFSKMKQSNNEANLREEVLKNLATAYDNFVELVANLKEGTKFYNELTEILVRFQNKCSDIVFARKTER

Kd: ~50 µM
B2: V domain of HD-PTP (domain or fragment, human, UniProt Q9H3S7 401-714, looked up)
chain: MQLDPETVDNLDAYSHIPPQLMEKCAALSVRPDTVRNLVQSMQVLSGVFTDVEASLKDIRDLLEEDELLEQKFQEAVGQAGAISITSKAELAEVRREWAKYMEVHEKASFTNSELHRAMNLHVGNLRLLSGPLDQVRAALPTPALSPEDKAVLQNLKRILAKVQEMRDQRVSLEQQLRELIQKDDITASLVTTDHSEMKKLFEEQLKKYDQLKVYLEQNLAAQDRVLCALTEANVQYAAVRRVLSDLDQKWNSTLQTLVASYEAYEDLMKKSQEGRDFYADLESKVAALLERTQSTCQAREAARQQLLDRELKK
